Data taken from paper PMC12589613, “ATP-dependent one-dimensional movement maintains immune homeostasis by suppressing spontaneous MDA5 filament assembly” (Cell Research, 2025).

Assays:
Settings in all cases: both partners purified
[1] = target: T1, MDA5(M854K) (human, UniProt Q9BYX4 1-1025, M854K, Cy3 on a peptide (Cy3-CLPETGG) ligated by sortase; used unlabelled in some experiments); test: single-molecule TIRF imaging (smTIRF) on dsRNA; 60 nM Cy3-LGP2 with or without 60 nM unlabelled MDA5, MDA5(R337G) or MDA5(M854K) on stretched, surface-anchored 11.6-kb dsRNA; Imaging Buffer (20 mM Tris-HCl pH 7.5, 100 mM NaCl, 1.5 mM MgCl2, 2 mM ATP unless stated otherwise), 23 °C
T1 sequence (looked up): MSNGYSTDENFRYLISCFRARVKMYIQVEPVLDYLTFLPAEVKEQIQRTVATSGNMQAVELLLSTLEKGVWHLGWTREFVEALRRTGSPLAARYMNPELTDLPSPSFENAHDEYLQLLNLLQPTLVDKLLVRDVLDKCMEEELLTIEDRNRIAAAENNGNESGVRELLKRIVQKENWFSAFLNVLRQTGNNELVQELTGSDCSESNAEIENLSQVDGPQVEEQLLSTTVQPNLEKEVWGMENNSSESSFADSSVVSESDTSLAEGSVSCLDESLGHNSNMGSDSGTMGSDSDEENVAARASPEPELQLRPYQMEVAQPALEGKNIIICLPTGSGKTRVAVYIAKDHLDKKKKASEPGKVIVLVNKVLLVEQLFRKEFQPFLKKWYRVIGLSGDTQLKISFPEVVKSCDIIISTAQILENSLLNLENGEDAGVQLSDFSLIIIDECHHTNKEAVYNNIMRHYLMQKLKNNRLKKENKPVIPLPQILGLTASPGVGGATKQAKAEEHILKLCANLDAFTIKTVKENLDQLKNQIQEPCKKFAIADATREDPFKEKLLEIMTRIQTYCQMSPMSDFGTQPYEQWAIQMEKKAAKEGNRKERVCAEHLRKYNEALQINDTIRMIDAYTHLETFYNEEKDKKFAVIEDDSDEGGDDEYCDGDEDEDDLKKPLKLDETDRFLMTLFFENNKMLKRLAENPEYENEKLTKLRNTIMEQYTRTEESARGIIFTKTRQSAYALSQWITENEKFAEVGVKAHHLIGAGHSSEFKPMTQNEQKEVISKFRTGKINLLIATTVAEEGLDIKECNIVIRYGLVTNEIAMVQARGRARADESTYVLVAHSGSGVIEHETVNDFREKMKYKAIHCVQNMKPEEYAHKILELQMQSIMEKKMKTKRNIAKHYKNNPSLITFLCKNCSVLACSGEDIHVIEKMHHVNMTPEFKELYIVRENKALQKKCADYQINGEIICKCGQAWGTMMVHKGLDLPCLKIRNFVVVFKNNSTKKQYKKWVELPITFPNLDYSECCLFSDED

[2] = target: T2, MDA5(R337G) (human, UniProt Q9BYX4 1-1025, R337G, Cy3 on a peptide (Cy3-CLPETGG) ligated by sortase; used unlabelled in some experiments); test: as above
T2 sequence (looked up): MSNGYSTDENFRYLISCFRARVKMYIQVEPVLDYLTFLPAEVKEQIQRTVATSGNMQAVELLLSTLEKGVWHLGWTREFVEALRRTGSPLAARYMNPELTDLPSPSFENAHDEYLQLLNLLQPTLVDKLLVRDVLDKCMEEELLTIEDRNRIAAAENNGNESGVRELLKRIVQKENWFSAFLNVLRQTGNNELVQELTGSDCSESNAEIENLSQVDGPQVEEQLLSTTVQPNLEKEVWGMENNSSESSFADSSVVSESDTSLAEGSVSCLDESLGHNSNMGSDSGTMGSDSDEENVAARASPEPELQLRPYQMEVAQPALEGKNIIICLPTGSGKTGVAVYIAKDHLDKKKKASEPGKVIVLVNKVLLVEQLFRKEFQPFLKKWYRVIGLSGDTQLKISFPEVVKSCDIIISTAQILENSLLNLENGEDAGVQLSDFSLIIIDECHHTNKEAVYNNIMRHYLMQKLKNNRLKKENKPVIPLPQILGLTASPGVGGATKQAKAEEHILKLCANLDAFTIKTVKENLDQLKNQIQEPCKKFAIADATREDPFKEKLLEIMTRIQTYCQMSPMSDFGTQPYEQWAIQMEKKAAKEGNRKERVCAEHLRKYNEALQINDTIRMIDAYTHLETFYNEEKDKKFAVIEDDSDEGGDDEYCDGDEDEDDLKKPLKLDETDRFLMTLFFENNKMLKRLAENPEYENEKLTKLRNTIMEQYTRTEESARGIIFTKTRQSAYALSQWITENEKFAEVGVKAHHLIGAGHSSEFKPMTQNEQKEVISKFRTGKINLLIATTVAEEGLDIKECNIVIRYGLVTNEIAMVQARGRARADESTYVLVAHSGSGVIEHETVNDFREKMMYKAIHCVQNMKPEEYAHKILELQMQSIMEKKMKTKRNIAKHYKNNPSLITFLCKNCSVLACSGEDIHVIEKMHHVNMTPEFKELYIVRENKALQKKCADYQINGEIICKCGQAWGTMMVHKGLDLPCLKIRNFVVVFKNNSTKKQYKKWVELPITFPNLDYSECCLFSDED

[3] = target: T1, MDA5(M854K); test: single-molecule TIRF imaging (smTIRF) on dsRNA; MAVS-CARD recruitment without LGP2: Cy3-MDA5, Cy3-MDA5(R337G) or Cy3-MDA5(M854K) (100 nM) and AF647-MAVS-CARD (100 nM) on 11.6-kb dsRNA; Imaging Buffer with 2 mM ATP, 23 °C
[4] = target: T2, MDA5(R337G); test: as above

Row | Binder | binding result [1] | binding result [2] | binding result [3] | binding result [4]
1 | human LGP2 (natural protein, UniProt Q96C10 1-678, looked up, Cy3 or Cy5 on a peptide (GGGC-Cy3/Cy5) ligated by sortase; used unlabelled in some experiments) MELRSYQWEVIMPALEGKNIIIWLPTGAGKTRAAAYVAKRHLETVDGAKVVVLVNRVHLVTQHGEEFRRMLDGRWTVTTLSGDMGPRAGFGHLARCHDLLICTAELLQMALTSPEEEEHVELTVFSLIVVDECHHTHKDTVYNVIMSQYLELKLQRAQPLPQVLGLTASPGTGGASKLDGAINHVLQLCANLDTWCIMSPQNCCPQLQEHSQQPCKQYNLCHRRSQDPFGDLLKKLMDQIHDHLEMPELSRKFGTQMYEQQVVKLSEAAALAGLQEQRVYALHLRRYNDALLIHDTVRAVDALAALQDFYHREHVTKTQILCAERRLLALFDDRKNELAHLATHGPENPKLEMLEKILQRQFSSSNSPRGIIFTRTRQSAHSLLLWLQQQQGLQTVDIRAQLLIGAGNSSQSTHMTQRDQQEVIQKFQDGTLNLLVATSVAEEGLDIPHCNVVVRYGLLTNEISMVQARGRARADQSVYAFVATEGSRELKRELINEALETLMEQAVAAVQKMDQAEYQAKIRDLQQAALTKRAAQAAQRENQRQQFPVEHVQLLCINCMVAVGHGSDLRKVEGTHHVNVNPNFSNYYNVSRDPVVINKVFKDWKPGGVISCRNCGEVWGLQMIYKSVKLPVLKVRSMLLETPQGRIQAKKWSRVPFSVPDFDFLQHCAENLSDLSLD | binds | binds |  | 
2 | MAVS-CARD(D23K/E26K/E80K) (domain or fragment, UniProt Q7Z434 1-97, looked up, Alexa Fluor 647 (SNAP-Surface Alexa Fluor 647 substrate) on the SNAP-tag, pET47b plasmid from the Sun Hur lab; also called AF647-MAVS-CARD; not shown: SNAP-tag, C-terminal, kept) MPFAEDKTYKYICRNFSNFCNVKVVKILPYLPCLTARDQDRLRATCTLSGNRDTLWHLFNTLQRRPGWVEYFIAALRGCKLVDLADEVASVYQSYQP |  |  | binds | binds
